Test: yeast display, Sf9 membrane polyspecificity reagent, FACS + sequencing; frameworks hold sequencing errors
Outline: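 Galactose induction of a Saccharomyces cerevisiae BJ5465 synthetic nanobody display library ran 36–48 hours. The cells were then stained for 1 hour at 4 °C with 10% biotinylated, detergent-solubilized Sf9 membrane reagent, pulled down on streptavidin microbeads and FACS-sorted into low and high (top ~1%) gates on expression and reagent-binding fluorescence. Labels for polyreactivity follow the gate of origin.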

Sequence | polyreactivity (PSR sort gate)
QVQLVESGGGIVQAGGSLRLSCAASGNIFGQYAMGWYRQAPGKERELVAAITTTGSTYYADSVKGRFTISRDNAKNTVYLQMNSLKPEDTAVYYCAAVRYYPISYSEYWQYGYWGQGTQVTVSS | low polyreactivity
QVQLVESGGGIVQAGGSLRLSCAASGNIFHQNAMGWYRQAPGKERELVAAISGSAGSTYYADSVKGRFTISRDNAKNTVYLQMNSLKPEDTAVYYCAADYYWLYNYWGQGTQVTVSS | high polyreactivity
QVQLVESGGGIVQAGGSLRLSCAASGNNFSLNGMGWYRQAPGKEREFLAAITWSVGSTYYAYSVNGRLTISRDNAKNTVYLQMNSLKPEDTAVYDCAATVSDLYKNEYYYWGLGTQVTVSS | low polyreactivity
QVQLVESGGGIVQAGGSLRLSCAASGPIFGSYALRWARQAPGKERELVAAITRSGGSTYYADSVKGRFTISRDNAKNTVYLQMNILKPEDTAVYYCAAYFSFSGSAKFGYWGQGTQVTVSS | high polyreactivity
QVQLVESGGGIVQAGGSLRLSCAASGPTFYLYDTMGWYRQAPGKERELVAAISWDDGDTYYADSVKGRFTISRDNAKNTVYLQMNSLKPEDTAVYYCAAESLSGAHGYWGQGTQVTVSS | low polyreactivity
QVQLVESGGGIVQAGGSLRLSCAASGRIFGFYAMVWYRQAPGNERELVAAITINTGSTSYADSVKGRFTSSRDNAKNTDSLPMNSLKPEDTAVYYCATDAAAPKYDYWGQGPQVTVSS | low polyreactivity
QVQLVESGGGIVQAGGSLRLSCAASGRIFGGNAMGWYRQAPGKERELVADISYGGGSTNYADSVKGRFTISRDNAKNTVYLQMNSLKPVDTAVYYCARDAWNTDGAYIGGDYDYWGQGTQVNVSS | low polyreactivity
QVQLVESGGGIVQAGGSLRLSCAASGRIFGRYAMGWYIQAPGKERELVAAISRSGGSTYYADSVKGRFTISRDNAKYTVYLQMNSLKPEDTAVYYCNAKYVRAGDTYDYWGQGTQVTVSS | high polyreactivity
QVQLVESGGGIVQAGGSLRLSCAASGRIFGTYGMGWYRQAPGKERELVAAISGGGSTNYADSVKGRFTISRDNAKNTVYLQMNSLKPEDTAVYYCAARYPPYRSWYSYDYWGHGTQVTVSS | low polyreactivity
QVQLVESGGGIVQAGGSLRLSCAASGRIFTQYTMGWYRQAPGKERELVAAINYSGGRTNYADSVKGRFTISRDIAKNTVYLQMNSLKPEDTAVYYCAAGYRRATYGYWGQGTQVTVSS | high polyreactivity
QVQLVESGGGIVQAGGSLRLSCAASGRIFVLNAMGWYRQAPGKERELVAAISKSAGSTYYADSVKGRFTISRDNAKNTVYLQMNSLKPEDTAVYYCNVGRRGHYLDAYDYWGQGTQVTVSS | high polyreactivity
QVQLVESGGGIVQAGGSLRLSCAASGRNFTFYAMGWYRQAPGKERELVAAITKSGGSTYYADSVKGRFTISRDNAKNTVYLQMNSLKPEDTAVYYCAAGNHRRPADYGSWGQGTQVTVSS | low polyreactivity
QVQLVESGGGIVQAGGSLRLSCAASGRSFGIYAMGWYRQAPGKERELVAGITRGDRTFAYSVKGRFTISRDNAKNTVYLQMNSLKPEDTAVYYCNADVYPYKLALPAGMGYWGQGTQVTVSS | high polyreactivity
QVQLVESGGGIVQAGGSLRLSCAASGRTFAYYAMGWYRQAPGKERELVAAIDSSGGSTYYADSVKGRFTISRDNAKNTVYLQMYSLKPEDTAVYYCAASYPYDRYDQGGYGYWGQGTQVTVSS | low polyreactivity
QVQLVESGGGIVQAGGSLRLSCAASGRTFNFYAMGWYRQAPGKERELVAAIRKSGASTYYADSVKGRFTISRDNAKNTVYLQMNSLKPEDTAVYYCAADGQVSYALGFDYWGQGTQVTVSS | high polyreactivity
QVQLVESGGGIVQAGGSLRLSCAASGRTFQLYAMGWYRQAPGKERELVAAITRGGSTKYADSVKGRFTISRDNAKNTVYLQMNSLKPEDTAVDYCAAKFSSYWSRFGYWGQGTQVTVSS | high polyreactivity
QVQLVESGGGIVQAGGSLRLSCAASGRTFQPYAMGWYRQAPGKERELVAAITSIGGSTFYADSVKGRFTISRDNAKNTVYLQMNSLKPEDTAVYYCARRGYYRSKWERDYWGQGTQVTVSS | low polyreactivity

From the nanobody polyreactivity screen of Harvey et al. (2022)
